# Results as given in paper PMC12170339, “Cryo-EM structure of the NDH–PSI–LHCI supercomplex from Spinacia oleracea” (Nature Structural & Molecular Biology, 2025).
# T1: NdhH (S. oleracea, UniProt Q9M3I5 1-393)
# T1 construct: NdhH, SubA module of chloroplast NDH, S. oleracea; source: purified from spinach (S. oleracea) leaves as part of the NDH–PSI–LHCI-2 supercomplex
# T1 sequence (looked up): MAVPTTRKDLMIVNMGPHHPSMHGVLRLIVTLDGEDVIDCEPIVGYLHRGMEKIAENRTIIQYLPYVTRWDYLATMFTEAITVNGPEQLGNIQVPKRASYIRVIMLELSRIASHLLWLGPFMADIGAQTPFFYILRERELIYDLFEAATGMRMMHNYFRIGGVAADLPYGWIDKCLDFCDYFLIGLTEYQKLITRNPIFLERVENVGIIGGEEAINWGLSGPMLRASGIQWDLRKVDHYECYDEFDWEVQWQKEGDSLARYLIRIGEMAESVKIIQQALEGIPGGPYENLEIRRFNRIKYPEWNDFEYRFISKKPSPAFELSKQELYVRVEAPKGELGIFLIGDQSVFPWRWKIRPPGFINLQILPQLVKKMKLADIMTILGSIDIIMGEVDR
# T2: NdhK (S. oleracea, UniProt Q9M3M0 1-227)
# T2 construct: NdhK, SubA module of chloroplast NDH, S. oleracea; source: purified from spinach (S. oleracea) leaves as part of the NDH–PSI–LHCI-2 supercomplex
# T2 sequence (looked up): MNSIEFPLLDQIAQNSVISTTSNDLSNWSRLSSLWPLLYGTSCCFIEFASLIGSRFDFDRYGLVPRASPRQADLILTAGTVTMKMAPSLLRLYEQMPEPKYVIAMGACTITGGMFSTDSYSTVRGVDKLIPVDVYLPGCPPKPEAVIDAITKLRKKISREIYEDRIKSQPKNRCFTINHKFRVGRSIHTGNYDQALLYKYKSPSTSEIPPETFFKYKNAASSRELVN
# B1: NdhA (natural protein, S. oleracea, UniProt Q9M3I6 1-365, looked up)
# chain: MIIDTTTTKVQAINSFSRLEFLKEVYETIWMLFPILILVLGITIGVLVIVWLEREISASIQQRIGPEYAGPLGILQALADGTKLLFKENLLPSRGDTYLFSIGPSIAVISILLGYLIIPFGSRLVLADLSIGVFLWIAVSSIAPIGLLMSGYGSNNKYSFLGGLRAAAQSISYEIPLTLCVLSISLLSNSSSTVDIVEAQSKYGFWGWNLWRQPIGFIVFIISSLAECERLPFDLPEAEEELVAGYQTEYSGIKFGLFYVASYLNLLISSLFVTVLYLGGWNLSIPYIFISEFFEINKIDGVFGTTIGIFITLAKTFLFLFIPITTRWTLPRLRMDQLLNLGWKFLLPISLGNLLLTTSSQLFSL
# notes: NdhA, SubM module of chloroplast NDH, S. oleracea; also called NhdA; source: purified from spinach (S. oleracea) leaves as part of the NDH–PSI–LHCI-2 supercomplex
# B2: NdhC (natural protein, S. oleracea, UniProt Q9M3L9 1-120, looked up)
# chain: MFLLYEYDIFWAFLIISSVIPILAFLFSGILAPISKGPEKLSSYESGIEPMGDAWLQFRIRYYMFALVFVVFDVETVFLYPWAMSFDILGVSVFIEALIFVLILIVGLVYAWRKGALEWS
# notes: NdhC, SubM module of chloroplast NDH, S. oleracea; source: purified from spinach (S. oleracea) leaves as part of the NDH–PSI–LHCI-2 supercomplex
# Columns and labels:
# Assay in all cases: cryo-EM structure; single-particle cryo-EM of the endogenous NDH–PSI–LHCI-2 supercomplex co-purified from spinach stromal lamellae in t-PCCαM; buffer A: 30 mM HEPES pH 7.8, 2 mM MgCl2, 2 mM KCl, 0.5 mM Na2-EDTA, 100 mM NaCl, 2 mM DTT, 0.04% t-PCCαM; 38,385 particles; 3.0–3.3 Å
# [1] = biological target: NADPH dehydrogenase (NDH) complex (S. oleracea) (UniProt Q9M3I6)
# NdhH = biological target: T1, NdhH; conditions: both partners purified
# NdhK = biological target: T2, NdhK; conditions: both partners purified
# NdhA = biological target: B1; conditions: both partners purified
stoichiometry N (NDH per PSI–LHCI) [1],binding result (NdhH),binding result (NdhK),binding result (NdhA),Molecule
1,,,,PSI–LHCI-2 (photosystem I–light-harvesting complex I) (from UniProt P06511 1-750; P06512 1-734; P10098 1-81; P12353 51-212; P12355 78-231; P12357 70-167; P22179 50-144; P17228 1-33; P17230 1-44; P14627 1-29; Q41385 48-216)
,binds,,,B1
,binds,binds,binds,B2
